The target in one test is human HER3 (UniProt P21860). The experiment in a line: BLI; absence of human NRG1.
The target of the next test is human HER3 (human) (UniProt Q02297). The test is described as follows: BLI; presence of human NRG1. For orientation: Biolayer interferometry detects binding as a change in optical thickness at a sensor tip.

The values that follow come from patent US20260132219A1.

Where only a bound is given, the exact number is not on record here.

One may read the Kd as the equilibrium constant for the complex coming apart. With LJM-716, the results for the Kd with human HER3 and with human HER3 (human) were less than 0.001 nM and 16.8 nM, respectively.
